Reference: publication PMC5354511, “Autophosphorylation-based Calcium (Ca^2+) Sensitivity Priming and Ca^2+/Calmodulin Inhibition of Arabidopsis thaliana Ca^2+-dependent Protein Kinase 28 (CPK28)*^([image sbox.jpg])^♦” (The Journal of Biological Chemistry, 2017)

Target: T1, recombinant CaM6 (untagged) (UniProt Q03509 1-149)
T1 construct: calmodulin 6 (CaM6), 'a conserved CaM isoform'; recombinant, untagged; also called Ca2+/CaM; source: E. coli NiCO (DE3), purified (heat step, phenyl-Sepharose)
Assay: native gel or EMSA; CaM (240 pmol) with different amounts of LL22 or pLL22 peptide in the ratios indicated, 20 μl, 60 min, then native PAGE
Settings: both partners purified

## LRQFVRYSRLKQFALRALASTL (source: synthetic peptide (LifeTein)) [LL22 peptide (CPK28 autoinhibitory junction)]
  stoichiometry N: 1
